Measured values: paper PMC3291989

Target: catalase (PktA) from Psychrobacter piscatorii T-3 (Psychrobacter piscatorii T-3)
Assay: SEC; gel filtration on two Protein PAK 300 columns, 0.1 M potassium phosphate buffer (pH 7.0), against mass standards; native mass compared with the subunit mass by SDS-PAGE

stoichiometry N: 4
Substance: catalase (PktA) from Psychrobacter piscatorii T-3 (enzyme)
